Laboratory results from paper PMC12622545, “An Allele of Glutamate Formiminotransferase Triggers 5‐Methyl‐Tetrahydrofolate‐to‐MeFox Conversion and Facilitates Folate Biofortification in Maize” (Advanced Science, 2025).

T1: SbGFT (Sorghum bicolor, UniProt C5WU82)
T1 construct: gene SORBI_3001G181300; synthetic gene, C-terminal 6xHis tag, E. coli BL21(DE3); monomer; 317 residues (apo crystal: A6-D317, C260S/C314S)
T1 sequence (C5WU82 1-317): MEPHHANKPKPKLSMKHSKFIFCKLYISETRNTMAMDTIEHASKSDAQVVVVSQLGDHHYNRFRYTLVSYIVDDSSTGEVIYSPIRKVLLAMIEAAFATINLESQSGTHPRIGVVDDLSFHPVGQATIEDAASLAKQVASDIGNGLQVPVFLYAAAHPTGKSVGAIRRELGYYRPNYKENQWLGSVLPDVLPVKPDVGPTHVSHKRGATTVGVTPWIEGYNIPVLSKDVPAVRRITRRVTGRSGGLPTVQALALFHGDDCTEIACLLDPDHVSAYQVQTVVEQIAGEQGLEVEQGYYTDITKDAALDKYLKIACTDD

B1: ZmGFT-B73 (Zea mays) (protein)
chain: MEPHHANKPRPKLSATKHSKFISCKLYISESRNATAVDAVERASKSDPQVVVVSQFGDHHYNRFRYTLVSYIVVVDGGGSSAAGEATVVHSPIRKVLLAMIEAAFSSIDLESQSGAHPRIGVVDDLSFHPVGQATIEDAASLARQVASDIACIAAVPVFLYAAAHPAGKSVGAVRRELGYYRPNYRGNQWSGSVLPNVLPVKPDVGPAHVVSHKRGATTVGVTPWIENYNVPVLCKDVATVRRITRGVTGRSGGLPTVQALALFHGDDCTEIACLLDPDHASAYQVQTVVEQIAGDQGLEVEQGYYTDITKDEALDKYLKIACADD
notes: C-terminal 10xHis tag, modified pFastBac1, Sf-9 insect cells; monomer; annotated 326 residues; Asn228
B2: ZmGFT-B73 (Zea mays; N228G) (protein)
chain: MEPHHANKPRPKLSATKHSKFISCKLYISESRNATAVDAVERASKSDPQVVVVSQFGDHHYNRFRYTLVSYIVVVDGGGSSAAGEATVVHSPIRKVLLAMIEAAFSSIDLESQSGAHPRIGVVDDLSFHPVGQATIEDAASLARQVASDIACIAAVPVFLYAAAHPAGKSVGAVRRELGYYRPNYRGNQWSGSVLPNVLPVKPDVGPAHVVSHKRGATTVGVTPWIEGYNVPVLCKDVATVRRITRGVTGRSGGLPTVQALALFHGDDCTEIACLLDPDHASAYQVQTVVEQIAGDQGLEVEQGYYTDITKDEALDKYLKIACADD
notes: as for B1
B3: ZmGFT-Qi319 (Zea mays) (protein)
chain: MEPHHANKPKPRPKLSAKHSKFISCKLYISESRNATAVDAVERASKSDPQVVVVSQFGDHHYNRFRYTLVSYIVVDDGGGGGSSAAGEATVVVHSPIRKVLLAMIEAAFSSIDLESQSGAHPRMGVVDDLSFHPVGQATVEDAASLARQVASDIACIAAVPVFLYAAAHPAGKSVGAVRRELGYYRPNYRGNQWSGSVLPDVLPVKPDVGPAHVVSHKRGATTVGVTPWIEGYNVPVLCKDVATVRRITRGVTGRSGGLPTVQALALFHGDDCTEIACLLDPDHASAYQVQTVVEQIAGDQGLEVEQGYYTDITKDEALDKYLKIACADD
notes: natural allele; C-terminal 10xHis tag, modified pFastBac1, Sf-9 insect cells; monomer
B4: ZmGFT-Qi319 (Zea mays; G232N) (protein)
chain: MEPHHANKPKPRPKLSAKHSKFISCKLYISESRNATAVDAVERASKSDPQVVVVSQFGDHHYNRFRYTLVSYIVVDDGGGGGSSAAGEATVVVHSPIRKVLLAMIEAAFSSIDLESQSGAHPRMGVVDDLSFHPVGQATVEDAASLARQVASDIACIAAVPVFLYAAAHPAGKSVGAVRRELGYYRPNYRGNQWSGSVLPDVLPVKPDVGPAHVVSHKRGATTVGVTPWIENYNVPVLCKDVATVRRITRGVTGRSGGLPTVQALALFHGDDCTEIACLLDPDHASAYQVQTVVEQIAGDQGLEVEQGYYTDITKDEALDKYLKIACADD
notes: as for B3

What was measured:
Test in all cases: LC-MS of MeFox formation, initial rates, Michaelis-Menten fit
Details in all cases: 50 mM sodium phosphate pH 7.0, 10 mM beta-mercaptoethanol, 30 °C, 0.5 µM protein
SbGFT = target: T1, SbGFT; format: biochemical
[1] = substrate: CN1c2c(nc(N)[nH]c2=O)NC[C@@H]1CNc1ccc(C(=O)N[C@@H](CCC(=O)O)C(=O)O)cc1; format: biochemical, Zea mays
[2] = substrate: CN1c2c(nc(N)[nH]c2=O)NC[C@@H]1CNc1ccc(C(=O)N[C@@H](CCC(=O)O)C(=O)O)cc1; format: biochemical, Zea mays; remark: listed apart in the source
From the text: LC-MS of MeFox formation, initial rates, Michaelis-Menten fit on ZmGFT-Qi319 | reduced approximately by sixfold for the mutant ZmGFT‐Qi319^G232N

| Molecule | K m (SbGFT) | Km [1] | kcat [1] | kcat/Km [1] | Km [2] | kcat [2] | kcat/Km [2] |
| --- | --- | --- | --- | --- | --- | --- | --- |
| CN1c2c(nc(N)[nH]c2=O)NC[C@@H]1CNc1ccc(C(=O)N[C@@H](CCC(=O)O)C(=O)O)cc1 [5-M-THF] | Converting analysis of wild‐type SbGFT and its mutant SbGFT^G219N | – | – | – | – | – | – |
| B1 | – | 3108.0 ± 2675.5 µM | 0.0783 ± 0.055 s⁻¹ | 25.2 M⁻¹ s⁻¹ | – | – | – |
| B2 | – | 888.0 ± 490.3 µM | 0.09 ± 0.0233 s⁻¹ | 101 M⁻¹ s⁻¹ | – | – | – |
| B3 | – | 153.1 ± 38.2 µM | 0.0317 ± 0.00167 s⁻¹ | 207 M⁻¹ s⁻¹ | – | – | – |
| B4 | – | – | – | – | 2209.0 ± 1046.0 µM | 0.075 ± 0.0533 s⁻¹ | 34 M⁻¹ s⁻¹ |
